Source: patent US20230203471A1, “METHOD AND PLATFORM FOR DISRUPTING INTRACELLULAR MICROTUBULES” (National Tsing Hua University, priority 2021, published 2023)
One block for each molecule: values may come before it.

Columns and labels:
[1] = tested on: intracellular microtubules in HeLa cells; experiment: Live-cell imaging of MT disruption (MT filament area) in transfected HeLa cells; type: cell-based
Protocol: The procedures of live-cell imaging are as follows. Live transfected cells cultured on poly(d-lysine)-coated glass coverslips (Hecht Assistent) were treated with either 100 nM rapamycin for rapid induction of protein dimerization and translocation or MT-targeting agents (10 µM nocodazole or 500 µM colchicine) during imaging. Live-cell imaging was conducted on a Nikon T1 inverted fluorescence microscope (Nikon) with a 60× oil objective (Nikon), a Prime camera (Photometrics), and 37° C., 5% CO2 heat stage (Live Cell Instrument). Rapid recruitment of proteins of interest (POIs) was imaged at 5- or 10-sec intervals, whereas the process of MT disruption was imaged at 1-min intervals. Images were obtained using Nikon NIS-Elements AR software and processed with Huygens Deconvolution Software (Scientific Volume Imaging). Image analysis was mainly performed with Nikon NIS-Elements AR software.
The procedures of measurement of MT filament area are as follows. The MT filaments in living cells were labeled with EMTB-CFP-FRB and imaged in real time (RAW image). The rolling ball correction was used to remove the cytosol background from the RAW images, which was carried out with the Nikon NIS-Elements AR software. Images were processed to generate the binary MT filament pattern via the Otsu threshold and analyzed by Fiji software.
FIGS. 2D and 2E show rapidly recruiting engineered spastins onto MTs. […] The top three layers are cells that simultaneously express EMTB-CFP-FRB and dNSpastin3Q-YFP-FKBP. The lower three layers are cells that simultaneously express EMTB-CFP-FRB and dNSpastin-YFP-FKBP-C2Lact. The color bar on the right indicates the brightness value represented by the color of the FRET signal. […] Data are shown as the mean ± S.E.M. It was noteworthy that MT disruption triggered by dNSpastin3Q-YFP-FKBP upon rapamycin treatment (T½ = 11.05 ± 1.52 min) was much faster than that of dNSpastin-YFP-FKBP-C2Lact upon rapamycin treatment (T½ = 53.08 ± 8.08 min), and treatment of two common MTAs, nocodazole (10 µM; T½ = 54.02 ± 10.29 min), colchicine (500 µM; T½ = 94.28 ± 8.63 min; see FIGS. 2F to 2J). […] In FIG. 2H, HeLa cells transfected with the indicated constructs were treated with nocodazole (Noc)([…], a type of MTA), colchicine (Col)(500 µM, a type of MTA), or rapamycin (Rapa)(100 nM); scale bar, 10 µm. […] Data are shown as the mean ± S.E.M. Student’s t-tests were performed, with the resulting p-values indicated.

[2] = target: MT-binding domain of ensconsin-cyan fluorescent protein-FKBP-rapamycin binding domain (EMTB-CFP-FRB) (Artificial Sequence); experiment: FRET live-cell imaging in co-transfected HeLa cells, 100 nM rapamycin
[3] = target: intracellular microtubules (MTs)
[4] = tested on: cytosolic MTs in HeLa cells; experiment: Immunofluorescence staining of α-tubulin in HeLa cells expressing spastin constructs; type: cell-based; conditions: expression in HeLa cells, α-tubulin intensity
Protocol: The procedures of immunofluorescence staining are as follows. Cells cultured in borosilicate glass Lab-Tek eight-well chambers (Nunc) were fixed in 4% paraformaldehyde (Electron Microscopy Sciences) at room temperature for 15 min. Fixed cells were permeabilized with 0.1% Triton X-100 and then incubated in blocking solution (phosphate-buffered saline with 2% bovine serum albumin) for 30 min at room temperature. To label cytosolic MTs, primary ciliary membrane, and axonemal MTs, cells were incubated for 1 hr at room temperature with mouse antibody against α-tubulin (1:500; Sigma Aldrich, T6199), rabbit antibody against Arl13b (1:500; Proteintech, 17711-1-AP), mouse antibody against glutamylated tubulin (1:100; Adipogen, AG-20B-0020-C100), mouse antibody against acetylated tubulin (1:500; Sigma Aldrich, T7451), rat antibody against tyrosinated tubulin (1:100; Sigma Aldrich, MAB1864), and mouse antibody against detyrosinated tubulin (1:100; MERCK, AB3201) each of which was diluted in blocking solution. Cells were then washed with PBS and incubated for 1 hr with appropriate secondary antibodies (1:1000 dilution; Thermo Fisher) at room temperature.
Spastin is a MT-cleaving enzyme that is ubiquitous in nearly all eukaryotic cells. Expression of full-length spastin (SpastinFL-YFP; the amino acid sequence of spastin is SEQ ID NO: 1) and truncated spastin without the N-terminal 1-140 amino acids (dNSpastin-YFP) in HeLa cells removed significant amounts of cytosolic MTs, 47.45% and 42.86%, respectively, relative to YFP-transfected control cells (See FIGS. 2A to 2C). This means that both full-length spastin and truncated spastin without N-terminal 1-140 amino acids have the effect on disrupting microtubules. FIGS. 2A to 2C show the microtubule cleavage activity of artificially engineered spastin enzyme. […] The dotted line on the right indicates the periphery of the cell that expresses spastin. […] SpastinFL expressed in cells can disrupt the intracellular microtubules. Making SpastinFL be located in the cytosol, truncated spastin would also disrupt the intracellular microtubules, so it would also be located in the cytosol. […] The truncated spastin is used in the subsequent experiments. […] Compared with the YFP control group, both SpastinFL-YFP and dNSpastrin-YFP can disrupt about 40% of the microtubules. Thus the N-terminal fragment (1-140 amino acids) was dispensable for Spastin-mediated MT severing. […]

[5] = tested on: EMTB-YFP-CIBN-labeled MTs in COS7 cells; experiment: Blue-light-induced recruitment of Cry2 proteins onto EMTB-YFP-CIBN-labeled MTs and MT disassembly; type: cell-based, African green monkey
Protocol: The procedures of photostimulation are as follows. COS7 cells were plated on poly(d-lysine)-coated coverslips and cultured in six-well plates (Thermo Scientific) for 48 hr. Before imaging, cells were incubated with SPY650-tubulin (1000-fold dilution; Spirochrome) at 37° C. for 1 hr. Local photostimulation was carried out with a fluorescence microscope (Nikon) equipped with a digital micromirror device, polygon 400 (MIGHTEX), and a 488-nm light source. Cells were illuminated with the blue light (5 sec on/1 sec off; 1.6 nW/µm^2) for the indicated duration. The mCherry and SPY650-tubulin were simultaneously imaged during photostimulation using Nikon element AR software.
The inventors next tried to use an optogenetic system to trigger MT disassembly in a sub-cellular region of interest during a specific period of time. Cryptochrome 2 (Cry2) (SEQ ID NO:14) and CIBN (N-terminal 170 amino acids of CIB1) (SEQ ID NO:15), two blue light-sensitive dimerizing partners, were used in our MT-manipulating system. Cry2, which was tagged with the red fluorescent protein mCherry (mCh—Cry2), was rapidly translocated onto EMTB—YFP—CIBN-labeled MTs only in regions illuminated with light (T½ = 34.6 ± 7.58 sec) and dissociated from MTs to the cytosol when the light was off (T½ = 28.2 ± 4.88 sec; see FIGS. 6A and 6B).
FIGS. 6A and 6B show using light to disassemble MTs in a reversible and location-specific manner. In FIG. 6A, COS7 cells co-transfected with EMTB—YFP—CIBN and mCh—Cry2 (red) were incubated with SPY650-tubulin (SPY650-tub) to visualize MTs; the cells were illuminated by blue light within a specified region (indicated by the dotted circle) for the indicated time period; scale bar, 10 µm.
The inventors then used light to control spastin-mediated MT disassembly in a spatially and temporally specific manner. dNSpastin3Q tagged with mCh-Cry2 was co-expressed with EMTB—YFP—CIBN in COS7 cells. MTs were labeled with SPY650-tubulin in these experiments.
FIGS. 6C and 6D show using light to disassemble MTs in a reversible and location-specific manner. In FIG. 6C, COS7 cells co-transfected with EMTB-YFP-CIBN and dNSpastin3Q-mCh—Cry2 were incubated with SPY650-tubulin to visualize MTs; the cells were illuminated by blue light as in FIG. 6A; scale bar, 10 µm. […] Data are shown as the mean ± S.E.M.

Sequence of MT-binding domain of ensconsin-cyan fluorescent protein-FKBP-rapamycin binding domain (EMTB-CFP-FRB) (Artificial Sequence) (chain, as listed by the source): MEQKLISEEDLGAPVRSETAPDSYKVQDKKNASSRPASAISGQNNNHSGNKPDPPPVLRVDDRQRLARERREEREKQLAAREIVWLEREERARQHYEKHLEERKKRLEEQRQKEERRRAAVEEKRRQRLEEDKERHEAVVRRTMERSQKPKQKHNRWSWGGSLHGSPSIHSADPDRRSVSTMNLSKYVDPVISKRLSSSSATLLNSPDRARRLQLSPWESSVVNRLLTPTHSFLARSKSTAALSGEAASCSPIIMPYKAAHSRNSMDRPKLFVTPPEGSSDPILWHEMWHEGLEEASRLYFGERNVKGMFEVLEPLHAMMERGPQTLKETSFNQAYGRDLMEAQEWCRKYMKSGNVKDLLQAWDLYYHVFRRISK

Molecule: COc1cc2c(c(OC)c1OC)-c1ccc(OC)c(=O)cc1[C@@H](NC(C)=O)CC2 [colchicine]
microtubules removed within one hour ([1]; 500 µM colchicine): 49% | time required to disrupt half of the intracellular microtubules ([1]; colchicine 500 µM): 94.28 ± 8.63 min | T½ of MT disruption ([1]; colchicine 500 µM, HeLa cells): 1.571 ± 0.144 h

T½ of translocation [2]: 5.73 s
Molecule: yellow fluorescent protein-tagged FKBP (YFP-FKBP)

removal of cytosolic MTs (normalized intensity of α-tubulin) [3]: 47.5%
B1: YFP-tagged full-length spastin (SpastinFL-YFP) (enzyme)
chain: MAAKRSSGTAPAPASPSPPAPGPGGEAESVRVFHKQAFEYISIALRIDEEEKGQKEQAVEWYKKGIEELEKGIAVIVTGQGEQYERARRLQAKMMTNLVMAKDRLQLLEKLQPVLQFSKSQTDVYNESTNLTCRNGHLQSESGAVPKRKDPLTHASNSLPRSKTVLKSGSAGLSGHHRAPSCSGLSMVSGARPGPGPAATTHKGTPKPNRTNKPSTPTTAVRKKKDLKNFRNVDSNLANLIMNEIVDNGTAVKFDDIAGQELAKQALQEIVILPSLRPELFTGLRAPARGLLLFGPPGNGKTMLAKAVAAESNATFFNISAASLTSKYVGEGEKLVRALFAVARELQPSIIFIDEVDSLLCERREGEHDASRRLKTEFLIEFDGVQSAGDDRVLVMGATNRPQELDEAVLRRFIKRVYVSLPNEETRLLLLKNLLCKQGSPLTQKELAQLARMTDGYSGSDLTALAKDAALGPIRELKPEQVKNMSASEMRNIRLSDFTESLKKIKRSVSPQTLEAYIRWNKDFGDTTV

removal of cytosolic MTs (normalized intensity of α-tubulin) [3]: 42.9%
B2: YFP-tagged truncated spastin without the N-terminal 1-140 amino acids (dNSpastin-YFP) (enzyme)
chain: MESGAVPKRKDPLTHASNSLPRSKTVLKSGSAGLSGHHRAPSCSGLSMVSGARPGPGPAATTHKGTPKPNRTNKPSTPTTAVRKKKDLKNFRNVDSNLANLIMNEIVDNGTAVKFDDIAGQELAKQALQEIVILPSLRPELFTGLRAPARGLLLFGPPGNGKTMLAKAVAAESNATFFNISAASLTSKYVGEGEKLVRALFAVARELQPSIIFIDEVDSLLCERREGEHDASRRLKTEFLIEFDGVQSAGDDRVLVMGATNRPQELDEAVLRRFIKRVYVSLPNEETRLLLLKNLLCKQGSPLTQKELAQLARMTDGYSGSDLTALAKDAALGPIRELKPEQVKNMSASEMRNIRLSDFTESLKKIKRSVSPQTLEAYIRWNKDFGDTTV
cytosolic MTs removed relative to YFP-transfected control cells [4]: 42.86% | cytosolic MTs removed relative to YFP-transfected control cells ([4]; listed as dNSpastrin-YFP): about 40%

B3: dNSpastin3Q-mCh—Cry2: dNSpastin3Q tagged with mCh-Cry2 (protein)
chain: MESGAVPKRKDPLTHASNSLPRSKTVLKSGSAGLSGHHRAPSCSGLSMVSGARPGPGPAATTHKGTPKPNRTNKPSTPTTAVRQQQDLKNFRNVDSNLANLIMNEIVDNGTAVKFDDIAGQELAKQALQEIVILPSLRPELFTGLRAPARGLLLFGPPGNGKTMLAKAVAAESNATFFNISAASLTSKYVGEGEKLVRALFAVARELQPSIIFIDEVDSLLCERREGEHDASRRLKTEFLIEFDGVQSAGDDRVLVMGATNRPQELDEAVLRRFIKRVYVSLPNEETRLLLLKNLLCKQGSPLTQKELAQLARMTDGYSGSDLTALAKDAALGPIRELKPEQVKNMSASEMRNIRLSDFTESLKKIKRSVSPQTLEAYIRWNKDFGDTTVMKMDKKTIVWFRRDLRIEDNPALAAAAHEGSVFPVFIWCPEEEGQFYPGRASRWWMKQSLAHLSQSLKALGSDLTLIKTHNTISAILDCIRVTGATKVVFNHLYDPVSLVRDHTVKEKLVERGISVQSYNGDLLYEPWEIYCEKGKPFTSFNSYWKKCLDMSIESVMLPPPWRLMPITAAAEAIWACSIEELGLENEAEKPSNALLTRAWSPGWSNADKLLNEFIEKQLIDYAKNSKKVVGNSTSLLSPYLHFGEISVRHVFQCARMKQIIWARDKNSEGEESADLFLRGIGLREYSRYICFNFPFTHEQSLLSHLRFFPWDADVDKFKAWRQGRTGYPLVDAGMRELRATGWMHNRIRVIVSSFAVKFLLLPWKWGMKYFWDTLLDADLECDILGWQYISGSIPDGHELDRLDNPALQGAKYDPEGEYIRQWLPELARLPTEWIHHPWDAPLTVLKASGVELGTNYAKPIVDIDTARELLAKAISRTREAQIMIGAA
reversibility in the dark ([5]; COS7 cells placed back in the dark): MT reassembly occurred | light-induced MT disassembly ([5]; COS7 cells, local blue light illumination, SPY650-tubulin): disassembly of MTs only in illuminated regions
